Data published in patent US20220033505A1 (Janssen / Centocor, published 2022).

B1: HC3B125 (CD3B376-Fab-Fc x MHGB732-LH-scFv-Fc, no C-terminal Lys) (bispecific antibody, human IgG1, lambda, L234A L235A)
heavy: QVQLQQSGPRLVRPSQTLSLTCAISGDSVFNNNAAWSWIRQSPSRGLEWLGRTYYRSKWLYDYAVSVKSRITVNPDTSRNQFTLQLNSVTPEDTALYYCARGYSSSFDYWGQGTLVTVSSASTKGPSVFPLAPSSKSTSGGTAALGCLVKDYFPEPVTVSWNSGALTSGVHTFPAVLQSSGLYSLSSVVTVPSSSLGTQTYICNVNHKPSNTKVDKKVEPKSCDKTHTCPPCPAPEAAGGPSVFLFPPKPKDTLMISRTPEVTCVVVSVSHEDPEVKFNWYVDGVEVHNAKTKPREEQYNSTYRVVSVLTVLHQDWLNGKEYKCKVSNKALPAPIEKTISKAKGQPREPQVYVYPPSREEMTKNQVSLTCLVKGFYPSDIAVEWESNGQPENNYKTTPPVLDSDGSFALVSKLTVDKSRWQQGNVFSCSVMHEALHNHYTQKSLSLSPG
light: QSALTQPASVSGSPGQSITISCTGTSSNIGTYKFVSWYQQHPDKAPKVLLYEVSKRPSGVSSRFSGSKSGNTASLTISGLQAEDQADYHCVSYAGSGTLLFGGGTKLTVLGQPKAAPSVTLFPPSSEELQANKATLVCLISDFYPGAVTVAWKADSSPVKAGVETTTPSKQSNNKYAASSYLSLTPEQWKSHRSYSCQVTHEGSTVEKTVAPTECS
scFv: DIVMTQSPDSLAVSLGERATINCKSSQSVLHSSNNKNYLTWFQQKPGQPPKLLIYWASTRESGVPDRFSGSGSGTDFTLTISSLQAEDVAVYYCHQYYSTPPTFGQGTKVEIKGGSEGKSSGSGSESKSTGGSQVQLQQSGPGLVKPSQTLSLTCAISGDSVSSNSAAWNWIRQSPSRGLEWLGRTYYRSKWYNDYAVSVKSRITINPDTSKNQISLQLNSVTPEDTAVYYCAGDRRYGIVGLPFAYWGQGTLVTVSSEPKSSDKTHTCPPCPAPEAAGGPSVFLFPPKPKDTLMISRTPEVTCVVVSVSHEDPEVKFNWYVDGVEVHNAKTKPREEQYNSTYRVVSVLTVLHQDWLNGKEYKCKVSNKALPAPIEKTISKAKGQPREPQVYVLPPSREEMTKNQVSLLCLVKGFYPSDIAVEWESNGQPENNYLTWPPVLDSDGSFFLYSKLTVDKSRWQQGNVFSCSVMHEALHNHYTQKSLSLSPG
B2: HC3B124 (CD3B219-Fab-Fc x MHGB732-scFv-Fc) (bispecific antibody, human IgG1, lambda, L234A L235A)
heavy: EVQLVESGGGLVQPGGSLRLSCAASGFTFNTYAMNWVRQAPGKGLEWVARIRSKYNNYATYYAASVKGRFTISRDDSKNSLYLQMNSLKTEDTAVYYCVRHGNFGNSYVSWFAYWGQGTLVTVSSASTKGPSVFPLAPSSKSTSGGTAALGCLVKDYFPEPVTVSWNSGALTSGVHTFPAVLQSSGLYSLSSVVTVPSSSLGTQTYICNVNHKPSNTKVDKKVEPKSCDKTHTCPPCPAPEAAGGPSVFLFPPKPKDTLMISRTPEVTCVVVSVSHEDPEVKFNWYVDGVEVHNAKTKPREEQYNSTYRVVSVLTVLHQDWLNGKEYKCKVSNKALPAPIEKTISKAKGQPREPQVYVYPPSREEMTKNQVSLTCLVKGFYPSDIAVEWESNGQPENNYKTTPPVLDSDGSFALVSKLTVDKSRWQQGNVFSCSVMHEALHNHYTQKSLSLSPG
light: QTVVTQEPSLTVSPGGTVTLTCRSSTGAVTTSNYANWVQQKPGQAPRGLIGGTNKRAPGTPARFSGSLLGGKAALTLSGVQPEDEAEYYCALWYSNLWVFGGGTKLTVLGQPKAAPSVTLFPPSSEELQANKATLVCLISDFYPGAVTVAWKADSSPVKAGVETTTPSKQSNNKYAASSYLSLTPEQWKSHRSYSCQVTHEGSTVEKTVAPTECS
scFv: B1 scFv
B3: HC3B123 (CD3W246-Fab-Fc x MHGB732-LH-scFv-Fc) (bispecific antibody, human IgG1, kappa, L234A L235A)
heavy: EVQLVESGGGLVKPGGSLRLSCAASGFTFSRYNMNWVRQAPGKGLEWVSSISTSSNYIYYADSVKGRFTFSRDNAKNSLDLQMSGLRAEDTAIYYCTRGWGPFDYWGQGTLVTVSSASTKGPSVFPLAPSSKSTSGGTAALGCLVKDYFPEPVTVSWNSGALTSGVHTFPAVLQSSGLYSLSSVVTVPSSSLGTQTYICNVNHKPSNTKVDKKVEPKSCDKTHTCPPCPAPEAAGGPSVFLFPPKPKDTLMISRTPEVTCVVVSVSHEDPEVKFNWYVDGVEVHNAKTKPREEQYNSTYRVVSVLTVLHQDWLNGKEYKCKVSNKALPAPIEKTISKAKGQPREPQVYVYPPSREEMTKNQVSLTCLVKGFYPSDIAVEWESNGQPENNYKTTPPVLDSDGSFALVSKLTVDKSRWQQGNVFSCSVMHEALHNHYTQKSLSLSPGK
light: DIQMTQSPSSLSASVGDRVTITCRARQSIGTAIHWYQQKPGKAPKLLIKYASESISGVPSRFSGSGSGTDFTLTISSVQPEDFATYYCQQSGSWPYTFGQGTKLEIKRTVAAPSVFIFPPSDEQLKSGTASVVCLLNNFYPREAKVQWKVDNALQSGNSQESVTEQDSKDSTYSLSSTLTLSKADYEKHKVYACEVTHQGLSSPVTKSFNRGEC
scFv: B1 scFv
B4: HC3B216 (CD3B376-Fab-Fc x MHGB737-scFv-Fc) (bispecific antibody, human IgG1, lambda, L234A L235A)
heavy: QVQLQQSGPRLVRPSQTLSLTCAISGDSVFNNNAAWSWIRQSPSRGLEWLGRTYYRSKWLYDYAVSVKSRITVNPDTSRNQFTLQLNSVTPEDTALYYCARGYSSSFDYWGQGTLVTVSSASTKGPSVFPLAPSSKSTSGGTAALGCLVKDYFPEPVTVSWNSGALTSGVHTFPAVLQSSGLYSLSSVVTVPSSSLGTQTYICNVNHKPSNTKVDKKVEPKSCDKTHTCPPCPAPEAAGGPSVFLFPPKPKDTLMISRTPEVTCVVVSVSHEDPEVKFNWYVDGVEVHNAKTKPREEQYNSTYRVVSVLTVLHQDWLNGKEYKCKVSNKALPAPIEKTISKAKGQPREPQVYVYPPSREEMTKNQVSLTCLVKGFYPSDIAVEWESNGQPENNYKTTPPVLDSDGSFALVSKLTVDKSRWQQGNVFSCSVMHEALHNHYTQKSLSLSPGK
light: B1 light
scFv: not shown
B5: HC3B230 (CD3B219-LH-scFv-Fc x MHGB732-Fab-Fc) (bispecific antibody, human IgG1, kappa, L234A L235A)
scFv: QTVVTQEPSLTVSPGGTVTLTCRSSTGAVTTSNYANWVQQKPGQAPRGLIGGTNKRAPGTPARFSGSLLGGKAALTLSGVQPEDEAEYYCALWYSNLWVFGGGTKLTVLGGSEGKSSGSGSESKSTGGSEVQLVESGGGLVQPGGSLRLSCAASGFTFNTYAMNWVRQAPGKGLEWVARIRSKYNNYATYYAASVKGRFTISRDDSKNSLYLQMNSLKTEDTAVYYCVRHGNFGNSYVSWFAYWGQGTLVTVSSEPKSSDKTHTCPPCPAPEAAGGPSVFLFPPKPKDTLMISRTPEVTCVVVSVSHEDPEVKFNWYVDGVEVHNAKTKPREEQYNSTYRVVSVLTVLHQDWLNGKEYKCKVSNKALPAPIEKTISKAKGQPREPQVYVYPPSREEMTKNQVSLTCLVKGFYPSDIAVEWESNGQPENNYKTTPPVLDSDGSFALVSKLTVDKSRWQQGNVFSCSVMHEALHNHYTQKSLSLSPG
heavy: QVQLQQSGPGLVKPSQTLSLTCAISGDSVSSNSAAWNWIRQSPSRGLEWLGRTYYRSKWYNDYAVSVKSRITINPDTSKNQISLQLNSVTPEDTAVYYCAGDRRYGIVGLPFAYWGQGTLVTVSSASTKGPSVFPLAPSSKSTSGGTAALGCLVKDYFPEPVTVSWNSGALTSGVHTFPAVLQSSGLYSLSSVVTVPSSSLGTQTYICNVNHKPSNTKVDKKVEPKSCDKTHTCPPCPAPEAAGGPSVFLFPPKPKDTLMISRTPEVTCVVVSVSHEDPEVKFNWYVDGVEVHNAKTKPREEQYNSTYRVVSVLTVLHQDWLNGKEYKCKVSNKALPAPIEKTISKAKGQPREPQVYVLPPSREEMTKNQVSLLCLVKGFYPSDIAVEWESNGQPENNYLTWPPVLDSDGSFFLYSKLTVDKSRWQQGNVFSCSVMHEALHNHYTQKSLSLSPG
light: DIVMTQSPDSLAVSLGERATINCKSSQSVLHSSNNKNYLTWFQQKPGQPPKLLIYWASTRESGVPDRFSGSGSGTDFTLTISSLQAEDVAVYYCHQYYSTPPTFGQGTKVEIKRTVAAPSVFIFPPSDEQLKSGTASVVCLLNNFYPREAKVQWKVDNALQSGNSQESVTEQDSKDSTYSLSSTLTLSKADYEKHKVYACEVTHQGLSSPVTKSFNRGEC
B6: HC3B214 (CD3W246-Fab-Fc x MHGB737-scFv-Fc) (bispecific antibody, human IgG1, kappa, L234A L235A)
heavy: B3 heavy
light: B3 light
scFv: not shown
B7: MHGB665/MHGB732 (one printed row for both names), IgG1 mAb (antibody, V domains shown)
VH: QVQLQQSGPGLVKPSQTLSLTCAISGDSVSSNSAAWNWIRQSPSRGLEWLGRTYYRSKWYNDYAVSVKSRITINPDTSKNQISLQLNSVTPEDTAVYYCAGDRRYGIVGLPFAYWGQGTLVTVSS
VL: not shown
notes: tested as IgG1 mAb
B8: MHGB687 (antibody, human IgG1, kappa, V domains shown)
VH: QLQLQESGPGLVKPSETLSLMCTVSGGSITSSSYYWGWIRQPPGKGLEWIGNIYYSGTTYYNPSLKSRVTISVDTSKNQFSLKLSSVTAADTAVYYCAAGARDFDSWGQGSLVTVSS
VL: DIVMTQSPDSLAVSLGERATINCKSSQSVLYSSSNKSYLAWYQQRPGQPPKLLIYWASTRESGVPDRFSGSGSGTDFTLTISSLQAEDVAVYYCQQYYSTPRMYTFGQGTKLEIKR
notes: IgG1 mAb
B9: MHGB668 (antibody, human IgG1, kappa, V domains shown)
VH: QVQLQQSGPGLVKPSQTLSLTCAISGDSVSNNSAAWNWIRQSPSRGLEWLGRTYYRSKWYNDYAVSVKSRITINPDTSKNQFSLQLNSVTPEDTAVYYCARYGSGTLLFDYWGQGTLVTVSS
VL: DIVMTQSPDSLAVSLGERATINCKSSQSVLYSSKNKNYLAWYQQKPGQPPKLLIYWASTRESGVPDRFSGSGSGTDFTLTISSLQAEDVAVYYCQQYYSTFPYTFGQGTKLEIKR
notes: IgG1 mAb
B10: MHGB738 (GL optimized B688) (antibody, human IgG1, kappa, V domains shown)
VH: QVQLQQSGPGLVKPSQTLSLTCAISGDSVSSNRAAWNWIRQSPSRGLEWLGRTYYRSKWYNDYAVSVKSRITINPDTSKNQISLQLNSVTPEDTAVYYCARVRPGIPFDYWGQGTPVTVSS
VL: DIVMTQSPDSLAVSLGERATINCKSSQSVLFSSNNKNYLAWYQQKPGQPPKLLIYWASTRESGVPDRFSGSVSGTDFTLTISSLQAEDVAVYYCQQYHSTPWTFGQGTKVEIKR
notes: IgG1 mAb

biological target: HLA-G on NCI-H2009-b2m target cells (human, UniProt P17693 25-338); test: cell-based or functional assay

| Binder | Cytotoxicity, EC50 (M); T cell-mediated cytotoxicity against NCI-H2009-b2m cells, 72 hr, E:T 3:1 [M] |
| --- | --- |
| B1 | 5.65e-11 |
| B2 | 3.85e-12 |
| B3 | 3.24e-12 |
| B4 | 1.9e-09 |
| B5 | 9.92e-12 |
| B6 | 1.38e-10 |

biological target: T1, HLA-G1 on K562 cells (K562-HLA-G) (human); test: flow cytometry; IgG1 mAb on cells expressing HLA-G
T1 construct: also called cells expressing HLA-G
Procedure: Briefly, 1.5×10⁷ cells were washed 2 times with 1×PBS and resuspended in 7 mL of 1×PBS and incubated for 10 min. After incubation, 8 mL of fetal bovine serum (FBS) were added, cells were washed by centrifugation at 300×g for 5 min and resuspended at 1×10⁶ cells/mL in DMEM supplemented with 10% FBS. […] After incubation, 150 μL of staining buffer were added and cells were washed by centrifugation at 300×g for 5 min. Cells were resuspended in 200 μL of running buffer (staining buffer supplemented with 1 mM EDTA, 0.1% (v/v) pluronic acid) and washed by centrifugation at 300×g for 5 min. Cells were resuspended in 30 mL of running buffer and analyzed for antibody binding by flow cytometry.

| Binder | Geomean fluorescence signal (maximum value for binding) |
| --- | --- |
| B7 | 632000 |
| B8 | 528000 |
| B9 | 591000 |

biological target: T2, MHGW8 (B2m-3(G4S)-HLA-G1-G4S-Avi), soluble HLA-G1 extracellular domain (human, biotinylated (Avi tag) in the ligand blocking assay); test: competition, flow cytometry: antibody titrated against MHGW8-dextramer binding to ILT2 on HEK293T cells (competitor ILT2)
T2 construct: also called HLA-G (MHGW8); recombinant biotinylated HLA-G1 (MHGW8)
Procedure: (§1) Cells were added (25,000 cells) and incubated for 30 min at 4° C. […] The resuspended mixture was analyzed for fluorescence signal by flow cytometry using an Intellicyt® iQue Screener Plus.

| Binder | EC50 [nM] |
| --- | --- |
| B10 | 0.73 |

biological target: T2, MHGW8 (B2m-3(G4S)-HLA-G1-G4S-Avi), …; test: competition, flow cytometry: antibody titrated against MHGW8-dextramer binding to ILT4 on HEK293T cells (competitor ILT4)
Procedure: as §1

| Binder | EC50 [nM] |
| --- | --- |
| B8 | 1.86 |
| B10 | 0.8 |
